“Also recorded” adds a separate entry of the source.
How the values were obtained:
[1] = system: primary bronchial epithelial cells from normal subjects; assay: Proliferation assay (methylene blue), primary bronchial epithelial cell cultures from normal controls; format: cell-based, human; details: 1.7 nM EGF for 24 hours vs serum free medium, FIG. 2a
From the text: (§1) Bronchial brushings were taken from non-atopic, non-asthmatic control subjects and asthmatic subjects. Volunteers were characterised according to symptoms, pulmonary function and medication. Assessment of asthma severity was in accordance with the GINA guidelines on the diagnosis and management of asthma (Bousquet (2000) Global initiative for asthma (GINA) and its objectives.
(§2) Bronchial brushings were obtained by bronchoscopy using a fibreoptic bronchoscope (Olympus FB-20D, Tokyo, Japan) in accordance with standard published guidelines (Hurd S. Z. (1991) J. Allergy Clin. Immunol. 88, 808-814). Bronchial epithelial cells were obtained using a standard sterile single-sheathed nylon cytology brush (Olympus BC 9C-26101; Tokyo, Japan). […] Epithelial cell purity was assessed by performing differential cell counts on cytospins of the harvested cell suspension. […]
(§3) Cells were prepared in 24 well trays at a seeding density of a minimum of 4×10^4 cells/ml primary BECs. […] Absorbance of the eluant was determined using a Multiskan ascent plate reader after a 1:10 dilution with 1:1 ethanol:0.1% HCl to provide an absorbance within the linear range of the plate reader. Absorbance was read using a 630 nm filter and each sample was tested in duplicate. A standard curve was generated by direct cell counting to enable cell number to be related to methylene blue readings. […]

[2] = system: primary bronchial epithelial cells from asthmatic subjects; assay: Proliferation assay (methylene blue), primary bronchial epithelial cell cultures from asthmatic subjects; format: cell-based, human; details: 1.7 nM EGF for 24 hours vs serum free medium, FIG. 2b
From the text: as §1, §2, §3

B1: EGF: epithelial growth factor; wild-type mouse EGF produced in Pischia pastoris (protein)
chain: WQTGNCQPGPLERSERSGTCAGPAPFLVFSQGKSISRIDPDGTNHQQLVVDAGISADMDIHYKKERLYWVDVERQVLLRVFLNGTGLEKVCNVERKVSGLAIDWIDDEVLWVDQQNGVITVTDMTGKNSRVLLSSLKHPSNIAVDPIERLMFWSSEVTGSLHRAHLKGVDVKTLLETGGISVLTLDVLDKRLFWVQDSGEGSHAYIHSCDYEGGSVRLIRHQARHSLSSMAFFGDRIFYSVLKSKAIWIANKHTGKDTVRINLHPSFVTPGKLMVVHPRAQPRTEDAAKDPDPELLKQRGRPCRFGLCERDPKSHSSACAEGYTLSRDRKYCEDVNECATQNHGCTLGCENTPGSYHCTCPTGFVLLPDGKQCHELVSCPGNVSKCSHGCVLTSDGPRCICPAGSVLGRDGKTCTGCSSPDNGGCSQICLPLRPGSWECDCFPGYDLQSDRKSCAASGPQPLLLFANSQDIRHMHFDGTDYKVLLSRQMGMVFALDYDPVESKIYFAQTALKWIERANMDGSQRERLITEGVDTLEGLALDWIGRRIYWTDSGKSVVGGSDLSGKHHRIIIQERISRPRGIAVHPRARRLFWTDVGMSPRIESASLQGSDRVLIASSNLLEPSGITIDYLTDTLYWCDTKRSVIEMANLDGSKRRRLIQNDVGHPFSLAVFEDHLWVSDWAIPSVIRVNKRTGQNRVRLQGSMLKPSSLVVVHPLAKPGADPCLYRNGGCEHICQESLGTARCLCREGFVKAWDGKMCLPQDYPILSGENADLSKEVTSLSNSTQAEVPDDDGTESSTLVAEIMVSGMNYEDDCGPGGCGSHARCVSDGETAECQCLKGFARDGNLCSDIDECVLARSDCPSTSSRCINTEGGYVCRCSEGYEGDGISCFDIDECQRGAHNCGENAACTNTEGGYNCTCAGRPSSPGLSCPDSTAPSLLGEDGHHLDRNSYPGCPSSYDGYCLNGGVCMHIESLDSYTCNCVIGYSGDRCQTRDLRWWELRHAGYGQKHDIMVVAVCMVALVLLLVLGMWGTYYYRTRKQLSNPPKNPCDEPSGSVSSSGPNSSSGAAVASCPQPWFVVLEKHQDPKNGSLPADGTNGAVVDAGLSPSLQLGSVHLTSWRQKPHIDGMGTGQSCWIPPSSDRGPQEIEGNSHLPSYRPVGPEKLHSLQSANGSCHERAPDLPRQTEPVQ
effect on cell number (proliferation) [1]: no effect on cell number; also recorded: unaffected | effect on cell number (proliferation) [2]: small but significant increase in cell number; also recorded: require exogenous EGF for maximal proliferation
